Test [1] addresses T1, recombinant cynomolgus monkey CD112R antigen (cynomolgus monkey, UniProt A0A2K5WVV8 1-322).
T1 construct: bought
T1 sequence: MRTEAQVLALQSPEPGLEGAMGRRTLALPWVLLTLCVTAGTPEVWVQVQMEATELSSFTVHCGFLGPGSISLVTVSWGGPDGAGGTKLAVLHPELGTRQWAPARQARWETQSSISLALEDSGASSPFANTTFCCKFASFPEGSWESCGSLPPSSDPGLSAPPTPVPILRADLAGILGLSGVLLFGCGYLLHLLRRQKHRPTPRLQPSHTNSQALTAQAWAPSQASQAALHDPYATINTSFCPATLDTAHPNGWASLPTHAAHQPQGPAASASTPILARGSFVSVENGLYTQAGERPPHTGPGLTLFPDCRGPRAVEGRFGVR
Description: ELISA on coated recombinant cynomolgus monkey CD112R, OD 450 nm, 4PL fit; unit from the axis. For orientation: An ELISA detects its analyte on a solid surface through an enzyme-linked reagent.

The target of test [2] is T2, mouse CD112R antigen (mouse).
T2 construct: bought
Kind of test: ELISA on coated mouse CD112R, OD 450 nm, ambiguous fit of a nearly flat curve; unit from the axis. The method, then: (§1) Plates were coated with a recombinant cynomolgus monkey CD112R antigen (purchased from Acrobiosystems, Cat No. PVG-C5259) and a mouse CD112R antigen (purchased from Acrobiosystems, Cat No. PVG-M5257) at fixed concentrations, respectively, and the humanized anti-CD112R antibodies diluted in a gradient (initial concentration: 1 μg/mL, 2.5-fold gradient dilution, 12 concentration gradients in total) were added to bind to the antigens, HRP-conjugated mouse anti-human IgG4 Fc (Southern Biotech. 9200-05) was subjected to a 5000-fold dilution and used as detection antibody for detection. The color development was performed with 0.1 mg/mL TMB, and finally stopped with 2 M hydrochloric acid. […] EC₅₀ was obtained by fitting with a four-parameter logistic regression (4PL) model.

Test [3] deals with T3, human CD112R on Jurkat CD112R effector cells (human, UniProt Q6DKI7 1-326).
T3 sequence (looked up): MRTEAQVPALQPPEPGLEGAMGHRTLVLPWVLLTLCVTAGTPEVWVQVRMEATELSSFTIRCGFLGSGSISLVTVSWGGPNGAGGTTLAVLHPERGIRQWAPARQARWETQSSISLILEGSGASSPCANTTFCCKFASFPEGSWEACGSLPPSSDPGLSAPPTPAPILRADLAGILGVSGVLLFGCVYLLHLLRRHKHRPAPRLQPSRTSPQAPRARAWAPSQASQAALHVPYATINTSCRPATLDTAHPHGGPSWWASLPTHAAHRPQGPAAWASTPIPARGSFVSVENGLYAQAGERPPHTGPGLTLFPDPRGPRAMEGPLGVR
Kind of test: cell-based or functional assay.

In test [4] the target is T4, hCD112R mFC recombinant protein (human; murine, UniProt Q6DKI7 41-160).
T4 construct: range 41-160; expressed in 293E cells; also called hCD112R ECD mFC; hCD112R-ECD-mFC; not shown: murine IgG2a Fc domain (MX2-mFc vector)
T4 sequence (looked up): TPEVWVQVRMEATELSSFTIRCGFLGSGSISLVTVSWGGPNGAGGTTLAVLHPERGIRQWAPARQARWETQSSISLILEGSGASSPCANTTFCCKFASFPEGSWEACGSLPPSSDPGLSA
Kind of test: ELISA, coated hCD112R-ECD-mFC. In a few lines: (§2)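 Plates coated with hCD112R-ECD-mFC at 1.5 μg/mL; humanized antibodies titrated from 1 μg/mL, 2.5-fold, 12 points. Bound antibody detected with HRP anti-human IgG Fc and TMB, read at 420/620 nm; EC50 from 4PL fit, COM701 and anti-KLH hu-IgG4 as controls.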

Test [5] deals with T1, recombinant cynomolgus monkey CD112R …. Description: ELISA, coated cynomolgus monkey CD112R. The method, then:
Plates were coated with a recombinant cynomolgus monkey CD112R antigen (purchased from Acrobiosystems, Cat No. PVG-C5259) and a mouse CD112R antigen (purchased from Acrobiosystems, Cat No. PVG-M5257) at fixed concentrations, respectively, and the humanized anti-CD112R antibodies diluted in a gradient (initial concentration: 1 μg/mL, 2.5-fold gradient dilution, 12 concentration gradients in total) were added to bind to the antigens, HRP-conjugated mouse anti-human IgG4 Fc (Southern Biotech. 9200-05) was subjected to a 5000-fold dilution and used as detection antibody for detection. The color development was performed with 0.1 mg/mL TMB, and finally stopped with 2 M hydrochloric acid. The plates were read at 420 nm/620 nm. EC₅₀ was obtained by fitting with a four-parameter logistic regression (4PL) model.

Test [6] has as its target T4, hCD112R mFC recombinant protein. Description: FACS competition, hCD112R mFc on CHO CD112 cells. In a few lines: (§3)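 CHO cells overexpressing human CD112 were co-incubated 30 min at 4 °C with hCD112R mFc (5 μg/mL) and humanized anti-CD112R antibodies (from 100 μg/mL, 3-fold, 10 points). Bound fusion protein detected with anti-mouse IgG Fc secondary by flow cytometry; IC50 from four-parameter fit of MFI. COM701 served as positive control, anti-KLH hu-IgG4 as negative.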

The target is the same in test [7]. Kind of test: ELISA, coated hCD112R-ECD-mFC; EC50 COM701/EC50 antibody. An outline of the steps:
as §2

Test [8] has the same target. Description: FACS competition, hCD112R mFc on CHO CD112 cells; IC50 COM701/IC50 antibody. In a few lines: as §3
Test [9] concerns the target T2, mouse CD112R antigen. Kind of test: ELISA on coated mouse CD112R, OD 450 nm, fit of a nearly flat curve; unit from the axis. The method, then:
as §1

The target in test [10] is T5, human CD112R on CHO-CD112R cells (human, UniProt Q6DKI7 41-326).
T5 construct: whole, on cells; also called hCD112R; PVRIG
T5 sequence (looked up): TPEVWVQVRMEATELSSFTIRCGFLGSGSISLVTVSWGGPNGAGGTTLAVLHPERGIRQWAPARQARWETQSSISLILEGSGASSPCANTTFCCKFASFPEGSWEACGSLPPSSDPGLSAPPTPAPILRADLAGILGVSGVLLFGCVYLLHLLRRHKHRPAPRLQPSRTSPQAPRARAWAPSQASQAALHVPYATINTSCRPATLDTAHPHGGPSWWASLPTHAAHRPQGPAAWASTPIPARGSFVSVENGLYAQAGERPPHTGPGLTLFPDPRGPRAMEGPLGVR
Description: FACS on CHO-CD112R cells. An outline of the steps: (§4)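 CHO cells stably expressing human CD112R (Met1-Arg326) incubated 30 min at 4 °C with antibody, top 50 μg/mL, 5-fold dilutions, 12 points. Fluorescent secondary antibody added, 30 min at 4 °C. MFI by flow cytometry; EC50 from fitted dose-response curves, with reference anti-CD112R and anti-KLH IgG4 controls.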

Test [11] deals with T5, human CD112R on CHO-CD112R cells. Kind of test: FACS on CHO-CD112R cells; EC50 Ref/EC50 antibody. In a few lines: as §4
In test [12] the target is T1, recombinant cynomolgus monkey CD112R …. Kind of test: ELISA on coated recombinant cynomolgus monkey CD112R, OD 450 nm, ambiguous fit; unit from the axis. As for the experimental part:
A plate was coated with a recombinant cynomolgus monkey CD112R antigen (Acrobiosystems, Cat No. PVG-C5259) at a fixed concentration, and the chimeric anti-CD112R antibodies diluted in a gradient (initial concentration: 1 μg/mL, 2.5-fold gradient dilution, 12 concentration gradients in total) were added to bind to the antigen. Horseradish peroxidase (HRP)-conjugated mouse anti-human IgG4 Fc (Southern Biotech, 9200-05) was subjected to a 5000-fold dilution and used as a detection antibody for detection. The color development was performed with 0.1 mg/mL TMB, and finally stopped with 2 M hydrochloric acid. […] EC₅₀ was obtained by fitting with a four-parameter logistic regression (4PL) model.

B1: COM701 (antibody, V domains shown)
VH: QVQLVQSGAEVKKPGASVKVSCKASGYTFTDYNINWVRQAPGQGLEWMGYIYPYIGGSGYAQKFQGRVTMTRDTSTSTVYMELSSLRSEDTAVYYCAREDKTARNAMDYWGQGTLVTVSS
VL: DIQMTQSPSSLSASVGDRVTITCRVSENIYSNLAWYQQKPGKAPKLLIYEATNLAEGVPSRFSGSGSGTDFTLTISSLQPEDFATYYCQHFWGTPYTFGQGTKLEIK
With B1, the EC50 (commonly the concentration needed to bring the measured effect to its halfway point) was 0.00428 µg/mL in test [1] and ~1.06 µg/mL in the test with mouse CD112R antigen [2].

B2: Hu52 (antibody, human IgG4 S228P, kappa)
heavy: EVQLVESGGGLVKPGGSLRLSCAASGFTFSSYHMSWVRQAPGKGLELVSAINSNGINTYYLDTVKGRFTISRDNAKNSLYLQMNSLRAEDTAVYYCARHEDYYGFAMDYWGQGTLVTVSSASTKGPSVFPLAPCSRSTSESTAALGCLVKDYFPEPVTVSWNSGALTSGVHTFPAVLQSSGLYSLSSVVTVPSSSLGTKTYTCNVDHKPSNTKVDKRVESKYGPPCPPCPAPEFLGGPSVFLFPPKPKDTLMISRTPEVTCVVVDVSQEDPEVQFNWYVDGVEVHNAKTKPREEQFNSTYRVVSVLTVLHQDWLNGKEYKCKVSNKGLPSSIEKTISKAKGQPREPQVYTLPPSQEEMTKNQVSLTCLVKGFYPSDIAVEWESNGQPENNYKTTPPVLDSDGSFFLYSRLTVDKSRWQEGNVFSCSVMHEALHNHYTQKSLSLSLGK
light: DIVMTQSPDSLAVSLGERATINCKASQSVSNDVAWYQQKPGQPPKLLIYYVSHRFTGVPDRFSGSGSGTDFTLTISSLQAEDVAVYFCHQAYRSPWTFGQGTKLEIKRTVAAPSVFIFPPSDEQLKSGTASVVCLLNNFYPREAKVQWKVDNALQSGNSQESVTEQDSKDSTYSLSSTLTLSKADYEKHKVYACEVTHQGLSSPVTKSFNRGEC
notes: humanized; 7C2VH1 + 6A10VL2
As for B2, the “EC50, CD112R/CD112 reporter” value in [3] is 0.018 µg/mL. In [3], the “Relative activity (%), EC50 COM701/EC50 antibody” value turned out to be 415%. Further, the half-maximal effective concentration (EC50) in test [4] came out at 0.00568 µg/mL; in test [5] it was 0.00309 µg/mL; with mouse CD112R antigen [9], 1870 µg/mL. The IC50 (as a rule, the concentration at which inhibition is half-maximal) in [6] was 2.52 µg/mL. Also, the “Relative activity (%)” value was found to be 161% in test [7] and 95.5% in test [8].

B3: Chi-18 (antibody, V domains shown)
VH: EVQLQQSGAELVKPGASVKISCKASGYTFTDYNMDWVKQSHGKSLEWIGDIHPKYDRTSYNQNFKGKATLTVDKSSRTAYMELRSLTSEDTAVYFCVRINDFDEGFAMDYWGQGTSVTVSS
VL: QIVLTQSPAIMSVSPGEKVTMTCSATSSINYMHWYQQKSGTSPKRWIYDTSKLASGVPARFSGSGSGTSYSLTISNMEAEDAATYYCQQWTSNPLTFGAGTKLELK
notes: chimeric
On to B3, for which the EC50 in [10] is 0.294 µg/mL; in [12], ~27600 µg/mL. Moreover, the “Relative activity (%)” value in test [11] amounted to 572%.

These data come from US20240309087A1 (SHANGHAI JUNSHI BIOSCIENCES, published 2024).
